Results: US6861508B2, “Transcriptional intermediary factor-2” (Institut National de la Sante et de la Recherche Medicale, priority 1996, dated 2005)

How the values were obtained:
[1] = molecular target: T1, GST-hERα(DEF) (pGEX2T-hERα(DEF), amino acids 282-595) (human, UniProt P03372 282-595); assay: GST pull-down with 35S in-vitro-translated TIF2 polypeptides, with or without 10^-6 M estradiol
T1 construct: range 282-595; Bacterially produced; also used 32P-labelled as Far-Western probe; also called GST-ER; GST-ER(DEF); not shown: glutathione-S-transferase (GST) of pGEX2T (Pharmacia)
T1 sequence (looked up): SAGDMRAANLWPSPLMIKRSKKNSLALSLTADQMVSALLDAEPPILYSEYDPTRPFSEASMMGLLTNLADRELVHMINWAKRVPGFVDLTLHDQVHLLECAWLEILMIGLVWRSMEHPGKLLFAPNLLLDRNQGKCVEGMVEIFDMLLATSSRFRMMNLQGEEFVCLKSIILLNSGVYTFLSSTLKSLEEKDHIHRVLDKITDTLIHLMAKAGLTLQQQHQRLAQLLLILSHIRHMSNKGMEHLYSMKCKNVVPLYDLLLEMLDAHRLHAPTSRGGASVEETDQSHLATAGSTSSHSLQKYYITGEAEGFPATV

ER, RARα and RXRα LBDs = assay: GST pull-down of TIF2 polypeptides with NR LBDs; type: binding; details: in vitro, with or without 10^−6 M ligand
Outline: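 In vitro GST-fusion pull-downs tested TIF2 deletion or point-mutant polypeptides against ER or RARα LBDs. Point-mutant binding was quantified relative to a TIF2.1 wildtype standard. Values are means of at least three experiments with SD.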

binding result [1]: no binding
binding to NRs (ER, RARα LBDs) (ER, RARα and RXRα LBDs): cannot bind NRs
B1: TIF2.2 (TIF2 amino acids 1288-1464) (other)
chain: NPRIPQANAQQFPFPPNYGISQQPDPGFTGATTPQSPLMSPRMAHTQSPMMQQSQANPAYQAPSDINGWAQGNMGGNSMFSQQSPPHFGQQANTSMYSNNMNINVSMATNTGGMSSMNQMTGQISMTSVTSVSTSGLSSMGPEQVNDPALRGGNLFPNQLPGMDMIKQEGDTTRKYC
notes: In-vitro-translated; also called AD2
